{
  "source": "patent US20140107039",
  "data": [
    {"substance": "Polycomb Repressive Complex 2 (PRC2), purified through FLAG-tagged human EED from HeLa or HEK293T nuclear extract", "values": [
      {"measurement": "Apparent Vmax of PRC2 methyltransferase reaction at varying mononucleosome concentrations", "setting": "H3K27ac peptide (18-37)", "value": "PRC2 reactions that contained H3K27ac peptide of identical peptide concentrations did not decrease the apparent Vmax of the reaction"},
      {"measurement": "Apparent Vmax of PRC2 methyltransferase reaction at varying mononucleosome concentrations", "setting": "H3.3K27M peptide (18-37)", "value": "showed a reduction in the apparent Vmax by addition of the K27M peptide"}
    ]}
  ]
}
